The values that follow come from US20250195685A1 (CAPSTAN THERAPEUTICS, published 2025).

For experiment [1], the target named is T1, human CD8αα homodimer, recombinant protein (Acro Biosystems) (human, UniProt P01732 22-182).
T1 construct: also called CD8αα antigen; biotinylated CD8α recombinant protein (CDA-H82E3)
Description: BLI, whole antibody.

Experiment [2] addresses T1, human CD8αα homodimer, recombinant …. Briefly: BLI kinetic rate KD on whole antibodies.
Experiment [3] has the same target. Briefly: BLI, whole antibody, steady state dissociation constant (column head x10^-9M). The method, then: (§1) To assess affinity of whole antibodies, steady state analysis was used as the bivalent nature of both whole antibody and CD8α complicates kinetic analysis. 50 nM CD8α-His (that is, CD8α with a C-terminal oligohistidine tag; Acro) was immobilized on Ni-NTA sensor probes. Binding was analyzed with a three-fold antibody dilutions series: 60 nM, 20 nM, 6.67 nM, 2.22 nM, 0.74 nM, and 0.25 nM. The antigen-loaded sensors were incubated in the diluted solutions to capture the whole IgG antibody for 300 s to record the association phase. Sensors were incubated in the kinetic buffer for 900 s to record the dissociation phase. The spin speed was 1000 rpm for all steps except the antigen loading step which was 400 rpm to control density of the antigen. The temperature of the performed assays was at 30° C. during the association and dissociation phases. The sensor data were baseline subtracted and further analyzed in GatorOne software (version 2.10) to determine the equilibrium dissociation constants (KD) of the antibodies by fitting the signals of the steady states to the 1:1 binding model.
(In general: In BLI a coated tip is dipped into the sample, and binding shifts an interference pattern.)

For experiment [4], the target named is T2, custom recombinant human CD8α mouse IgG2a Fc fusion protein (human; mouse, UniProt P01732 22-182, limits assumed).
T2 construct: Custom protein; also called human CD8α mouse Fc fusion protein; not shown: mouse IgG2a Fc
Description: BLI kinetic sensorgram, 1:1 global fit, 37 °C. How it is done:
(§2) The global fitting was performed with a 1:1 fitting model using GatorOne software as described below.
(§3) To measure the binding kinetics of the biotin-conjugated Fab molecule, streptavidin-immobilized SA-XT sensors (#160029, Gator Bio) were prehydrated in the kinetic buffer and loaded with […] biotinylated Fab sample CBD1033.37 or CBD1033.24 to a threshold response of 10 nm. […] The binder-loaded sensors were incubated in the diluted solutions to capture the CD8α protein for 1200 s to record the association phase. Sensors were finally incubated in the kinetic buffer for another 1200 s to record the dissociation phase. The spin speed for all steps was 1000 rpm. The temperature of the performed assays were at 37° C. during the association and dissociation. The sensor data were baseline subtracted, and global curve fitting of the kinetic data from six different analyte concentrations at a 1:1 monovalent binding model was performed using the GatorOne software (version v2.10) to determine the kinetic rate constants (kₒₙ and koff) and equilibrium dissociation constants (KD) of the analyzed binder.

Experiment [5] deals with T2, custom recombinant human CD8α mouse …. Description: BLI kinetics, biotin-conjugated F(ab') on SA-XT sensor, HuCD8a mouse Fc fusion as analyte, 37 °C. How it is done: as §2, §3
Experiment [6] deals with T1, human CD8αα homodimer, recombinant …. Description: BLI steady state, whole hIgG1-LALAPA antibody on CD8α-His (Ni-NTA sensor), 30 °C. The method, then:
as §1

The target is the same in experiment [7]. Briefly: BLI steady state analysis of the data of FIG. 2G. How it is done:
as §1

Experiment [8] has the same target. Briefly: BLI kinetic assay, engineered F(ab') fragment. How it is done: as §2
Biolayer interferometry kinetic assays were performed using a GatorBio Gator Plus BLI system. Kinetic buffer containing PBS plus 0.1% Tween 20 and 0.2% BSA was used for calculating the baseline. To measure the binding kinetics of anti-CD8α antibody fragment (Fab), streptavidin-immobilized SA-XT sensors (#160029, Gator Bio) were prehydrated in the kinetic buffer and loaded with […] biotinylated CD8α recombinant protein (CDA-H82E3, Acro Biosystems) at a spin speed of 400 rpm to a threshold response of 10 nm. The sensors were then incubated in the kinetic buffer for 300 s to acquire a baseline measurement prior to each association. […] The antigen-loaded sensors were incubated in the diluted solutions to capture Fab fragments for 300 s to record the association phase. Sensors were finally incubated in the kinetic buffer for 900 s to record the dissociation phase. The spin speed for all steps except the antigen loading step was 1000 rpm. The temperature of the performed assays was either 30° C. or 37° C. during the association and dissociation phases. Sensor data were baseline subtracted, and global curve fitting of the kinetic data from six different analyte concentrations at a 1:1 monovalent binding model was performed using GatorOne software (version v2.10) to determine kinetic rate constants (kₒₙ and koff) and equilibrium dissociation constants (KD) of the analyzed antibodies.

The target is the same in experiment [9]. Description: BLI kinetic sensorgram, 1:1 global fit. The method, then: as §2, §3

T2 sequence (P01732 22-182 limits assumed): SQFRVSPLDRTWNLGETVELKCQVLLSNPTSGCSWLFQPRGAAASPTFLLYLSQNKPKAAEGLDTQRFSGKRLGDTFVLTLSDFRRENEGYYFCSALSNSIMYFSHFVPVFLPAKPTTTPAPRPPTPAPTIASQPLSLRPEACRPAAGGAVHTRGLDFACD
T1 sequence (P01732 22-182 limits assumed): as above

B1: CBD1383 whole antibody (VH N55D of CBD1033, deamidation mimic), Fc-silenced human IgG1 (antibody, V domains shown)
VH: QVQLVQSGAEVKKPGASVKVSCKASRYTFTDYNLHWVRQAPGQGLEWMGFIYPYDGGTGYAQKFQGRVTMTVDTSTSTAYMELSSLRSEDTAVYYCARDHRYNEGVSFDYWGQGTTVTVSS
VL: DIQLTQSPSSLSASVGDRATITCRASESVDGFGNSFMNWYQQKPGKAPKLLIYLASNLESGVPSRFSGSGSGTDFTLTISSVQPEDFATYYCQQNNEDPYTFGQGTKLEIKR
notes: also called 100% deamidation mimic
On to B1, for which, in [1], the koff – broadly, the first-order rate constant of dissociation – is 0.00303 s⁻¹ and the kon (as a rule, the rate constant with which the complex forms) worked out at 1.1e+06 M⁻¹ s⁻¹. Moreover, the “fold reduction of affinity compared to CBD1033” value in experiment [2] was ~5.5 fold. Moreover, the Kd (as a rule, the equilibrium constant for the complex coming apart) in experiment [3] was 7.94 nM.

B2: maleimide-PEG-biotin conjugated CBD1033.37 F(ab') (Fab, V domains shown)
VH: QVQLVQSGAEVKKPGASVKVSCKASRYTFTDYNLHWVRQAPGQGLEWMGFIYPYNGGTGYAQKFQGRVTMTVDTSTSTAYMELSSLRSEDTAVYYCARDHRYNEGVSFDYWGQGTTVTVSS
VL: DIQLTQSPSSLSASVGDRATITCRASESVDGFGNSFMNWYQQKPGKAPKLLIYLASNLESGVPSRFSGSGSGTDFTLTISSVQPEDFATYYCQQNNEDPYTFGQGTKLEIKR
modifications: maleimide-PEG11-biotin on CH C230 (sequential numbering, corresponding to C239 in Kabat numbering)
notes: Loaded on streptavidin sensors through the biotin; also called biotinylated Fab sample CBD1033.37
Regarding B2, in experiment [4], the Kd is 6.85 nM, the koff came out at 0.000144 s⁻¹ and the kon was found to be 20900 M⁻¹ s⁻¹. For the same molecule, in experiment [5], the Kd came out at 6.85 nM, the koff turned out to be 0.000144 s⁻¹ and the kon stood at 20900 M⁻¹ s⁻¹.

B3: CBD1043 (antibody, human IgG1, kappa, L234A L235A, V domains shown)
VH: QVQLVQSGAEVKKPGASVKVSCKASRYTFTDYNLHWVRQAPGQGLEWIGFIYPYNGGTGYAQKFQGRVTITADTSTSTAYMELSSLRSEDTAVYYCARDHRYNEGVSFDYWGQGTLVTVSS
VL: EIVLTQSPGTLSLSPGERATLSCRASESVDGFGNSFMNWYQQKPGQAPRLLIYLASNLESGVPARFSGSGSGTDFTLTISRLEPEDFAVYYCQQNNEDPYTFGQGTKVEIKR
notes: also called CBD1043- hIgG1LALAPA; h1017-H7/L5 whole antibody
Regarding B3, the Kd in experiment [6] and in experiment [7] was 3.91 nM each time.

B4: CBD1033.37 disulfide-engineered F(ab') analog (IgG1-derived) (Fab, V domains shown)
VH: QVQLVQSGAEVKKPGASVKVSCKASRYTFTDYNLHWVRQAPGQGLEWMGFIYPYNGGTGYAQKFQGRVTMTVDTSTSTAYMELSSLRSEDTAVYYCARDHRYNEGVSFDYWGQGTTVTVSS
VL: DIQLTQSPSSLSASVGDRATITCRASESVDGFGNSFMNWYQQKPGKAPKLLIYLASNLESGVPSRFSGSGSGTDFTLTISSVQPEDFATYYCQQNNEDPYTFGQGTKLEIKR
notes: Engineered CH1-F174C / CK-S162C interchain disulfide; native disulfide removed; also called .37 design
Consider B4, for which, in [8], the Kd stood at 4.01 nM, the koff turned out to be 6.28e-05 s⁻¹ and the kon was determined as 15600 M⁻¹ s⁻¹. Moreover, in experiment [9], the Kd turned out to be 4.01 nM, the koff stood at 6.28e-05 s⁻¹ and the kon turned out to be 15600 M⁻¹ s⁻¹.
